Results: article PMC7352202, “An Integrative Synthetic Biology Approach to Interrogating Cellular Ubiquitin and Ufm Signaling” (International Journal of Molecular Sciences, 2020)

Biological target: T1, GST-UFL1 (human, UniProt O94874 1-794)
T1 construct: UFL1, human, E3 ligase for ufmylation; purified recombinant GST-UFL1; The end of the GST tag is read from the printed name 'GST-UFL1'; source: E. coli BL21, purified (glutathione beads); not shown: GST, N-terminal, kept
T1 sequence (looked up): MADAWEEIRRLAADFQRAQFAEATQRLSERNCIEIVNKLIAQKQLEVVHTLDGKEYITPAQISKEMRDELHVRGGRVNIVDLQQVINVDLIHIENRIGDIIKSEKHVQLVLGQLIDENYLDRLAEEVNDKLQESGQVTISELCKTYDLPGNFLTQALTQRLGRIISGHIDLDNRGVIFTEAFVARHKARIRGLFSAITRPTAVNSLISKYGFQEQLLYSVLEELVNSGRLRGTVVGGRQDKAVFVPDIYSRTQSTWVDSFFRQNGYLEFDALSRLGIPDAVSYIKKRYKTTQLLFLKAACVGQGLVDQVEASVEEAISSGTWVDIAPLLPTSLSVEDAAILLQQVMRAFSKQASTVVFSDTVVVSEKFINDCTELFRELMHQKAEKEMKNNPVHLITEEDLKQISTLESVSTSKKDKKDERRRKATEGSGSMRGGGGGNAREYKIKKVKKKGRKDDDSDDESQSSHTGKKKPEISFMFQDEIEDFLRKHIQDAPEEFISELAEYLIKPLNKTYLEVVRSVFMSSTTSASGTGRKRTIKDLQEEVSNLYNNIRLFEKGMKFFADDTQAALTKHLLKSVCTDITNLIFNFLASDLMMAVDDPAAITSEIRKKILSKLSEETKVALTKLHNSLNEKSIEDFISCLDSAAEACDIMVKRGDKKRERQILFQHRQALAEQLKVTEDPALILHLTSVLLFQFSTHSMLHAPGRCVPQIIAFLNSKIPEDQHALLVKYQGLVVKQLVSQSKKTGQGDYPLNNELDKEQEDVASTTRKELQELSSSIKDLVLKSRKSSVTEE
Experiment: pull-down; GST pull-down: purified GST-UFL1 (20 ug) and substrate-Flag-His6 (20 ug) with Glutathione Sepharose 4B beads, 4 °C overnight, 20 mM Tris-Cl, 100 mM NaCl, 5 mM MgCl2, 1 mM EDTA, 1 mM DTT, 0.5% NP-40, 10 ug/mL BSA, pH 7.5; immunoblot
Conditions: both partners purified

B1: MT1M-Flag-His6 (natural protein)
chain: not shown
notes: MT1M, metallothionein family, human; purified recombinant MT1M-Flag-His6; The ends of the tags are read from the printed name; source: E. coli BL21, purified (Ni-NTA beads); not shown: Flag, C-terminal, kept; His6, C-terminal, kept
B1: binds.
